Results: article PMC11870023, “A facile assay for zDHHC palmitoyl transferase activation elucidates effects of mutation and modification” (Journal of Lipid Research, 2025)

B1: mouse zDHHC3 (Mus musculus) (protein)
chain: MMLIPTHHFRDIERKPEYLQPEKCAPPPFPGPAGAMWFIRDGCGIACAIVTWFLVLYAEFVVLFVMLVPSRDYAYSIINGIVFNLLAFLALASHCRAMLTDPGAVPKGNATKEFIESLQLKPGQVVYKCPKCCSIKPDRAHHCSVCKRCIRKMDHHCPWVNNCVGENNQKYFVLFTMYIALISLHALIMVGFHFLHCFEEDWTKCSSFSPPTTVILLILLCFEALLFLIFTSVMFGTQVHSICTDETGIEQLKKEERRWAKKTKWMNMKAVFGHPFSLGWASPFATPDQGKADPYQYVV
notes: full length, HA tag kept (pEF-Bos-HA), HEK293 membrane fraction
B2: mouse zDHHC2 (Mus musculus) (protein)
chain: MAPSGSGGVRRRCRRVLYWIPVVFISLLLGWSYYAYAIQLCIVSMENIGEQVVCLMAYHLLFAMFVWSYWKTIFTLPMNPSKEFHLSYAEKELLEREPRGEAHQEVLRRAAKDLPIYTRTMSGAIRYCDRCQLIKPDRCHHCSVCDKCILKMDHHCPWVNNCVGFSNYKFFLLFLAYSLLYCLFIAATDLQYFIRFWTNGLPDTQAKFHIMFLFFAAAMFSVSLSSLFGYHCWLVSKNKSTLEAFRNPVFRHGTDKNGFSLGFSKNMRQVFGDEKKYWLLPVFSSQGDGCSFPTCLVNQDPEQPSTPAGLNSTVKNPENHQFPAKPLRESQSHLLKDSQTWTESSANPGKGKAGMSNPALTMENET
notes: as for B1
B3: mouse zDHHC4 (Mus musculus) (protein)
chain: MDFLVLFLFYLAFLLICVVLICIFTKSQRLKAVVLGGAQVCSRVIPQCLQRAVQTLLHQLFHTRHPTFIVLHLLLQGLVYAEYTCEVFGYCRELEFSLPYLLLPYVLLSVNLVFFTLTCAANPGTITKANESFLLQVYKFDDVMFPKNSRCPTCDLRKPARSKHCRLCDRCVHRFDHHCVWVNNCIGAWNTRYFLIYLLTLTASAATIATVTAAFLLRLVTVSDLYQETYLDDVGHFQAVDTVFLIQHLFLAFPRIVFLLGFVIVLSMLLAGYLCFALYLAATNQTTNEWYKGDWAWCQRWPLVAWSPSAEPRIHQNIHSHGFRSNLREIFLPATPSYKKKEK
notes: as for B1
B4: mouse zDHHC14 (Mus musculus) (protein)
chain: MPPGGGGPMKDCEYSQISTHSSSPMESPHKKKKIAARRKWEVFPGRNKFFCNGRIMMARQTGVFYLTLILILVTSGLFFAFDCRYLAEKITPAIPVVGGILFFFVMGTLLRTSFSDPGVLPRATPDEAADLERQIDIANGTSSGGYRPPPRTKEVVINGQTVKLKYCFTCKIFRPPRASHCSLCDNCVEQFDHHCPWVGNCVGKRNYRFFYMFILSLSFLTVFIFAFVITHVIHRSQQKGFLDALKDSPASVLEAVICFFSVWSIIGLSGFHTYLISSNQTTNEDIKGSWSNKRGKENYNPYSYGNIFTNCCVALCGPISPSLIDRRGYVQPDTPQPAAPSNGITMYGATQSQSDMCDQDQCIQSTKFVLQAAATPLLQSEPSLTSEELHMPGKPGLGTPCASLTLGQPTPPSSMPNLATEATLSDIMPLKDEHGGHQFLTPDEAPSPPRMLGAGSPLAHSRTMHMLGLASQDSLHEDSVRGLVKLSSV
notes: as for B1
B5: human zDHHC14 (Homo sapiens) (protein)
chain: MPPGGGGPMKDCEYSQISTHSSSPMESPHKKKKIAARRKWEVFPGRNKFFCNGRIMMARQTGVFYLTLVLILVTSGLFFAFDCPYLAVKITPAIPAVAGILFFFVMGTLLRTSFSDPGVLPRATPDEAADLERQIDIANGTSSGGYRPPPRTKEVIINGQTVKLKYCFTCKIFRPPRASHCSLCDNCVERFDHHCPWVGNCVGKRNYRFFYMFILSLSFLTVFIFAFVITHVILRSQQTGFLNALKDSPASVLEAVVCFFSVWSIVGLSGFHTYLISSNQTTNEDIKGSWSNKRGKENYNPYSYGNIFTNCCVALCGPISPSLIDRRGYIQPDTPQPAAPSNGITMYGATQSQSDMCDQDQCIQSTKFVLQAAATPLLQSEPSLTSDELHLPGKPGLGTPCASLTLGPPTPPASMPNLAEATLADVMPRKDEHMGHQFLTPDEAPSPPRLLAAGSPLAHSRTMHVLGLASQDSLHEDSVRGLVKLSSV
notes: full length, His6-Myc tag kept (pCEpuro-His6-Myc-1), HEK293 membrane fraction

Columns and labels:
[1] = substrate: CC(C)(COP(=O)(O)OP(=O)(O)OC[C@H]1O[C@@H](n2cnc3c(N)ncnc32)[C@H](O)[C@@H]1OP(=O)(O)O)[C@@H](O)C(=O)NCCC(=O)NCCSC(=O)CCCCCCCCCCCCCCCNc1ccc([N+](=O)[O-])c2nonc12; assay: auto-S-palmitoylation of HEK293 membranes, SDS-PAGE fluorescence normalised to tag Western blot; type: cell-based, Mus musculus; details: pH 7.4, 37 °C, labelled compound, covalent thioester at active-site Cys
[2] = substrate: CC(C)(COP(=O)(O)OP(=O)(O)OC[C@H]1O[C@@H](n2cnc3c(N)ncnc32)[C@H](O)[C@@H]1OP(=O)(O)O)[C@@H](O)C(=O)NCCC(=O)NCCSC(=O)CCCCCCCCCCCCCCCNc1ccc([N+](=O)[O-])c2nonc12; assay: as above; type: cell-based, Homo sapiens; details: pH 7.4, 37 °C, 2 min, labelled compound, covalent thioester at active-site Cys

Protein | Km [1] | Km [2]
B1 | 6.83 ± 0.98 µM | –
B2 | 2.86 ± 0.78 µM | –
B3 | 0.69 ± 0.13 µM | –
B4 | 0.98 ± 0.15 µM | –
B5 | – | 1.78 ± 0.32 µM
